From IntAct's records for PubMed 9647694

B1: ATP-sensitive inward rectifier potassium channel 10 (Mus musculus), Q9JM63 (parent)
chain: MTSVAKVYYSQTTQTESRPLVAPGIRRRRVLTKDGRSNVRMEHIADKRFLYLKDLWTTFIDMQWRYKLLLFSATFAGTWFLFGVVWYLVAVAHGDLLELGPPANHTPCVVQVHTLTGAFLFSLESQTTIGYGFRYISEECPLAIVLLIAQLVLTTILEIFITGTFLAKIARPKKRAETIRFSQHAVVASHNGKPCLMIRVANMRKSLLIGCQVTGKLLQTHQTKEGENIRLNQVNVTFQVDTASDSPFLILPLTFYHVVDETSPLKDLPLRSGEGDFELVLILSGTVESTSATCQVRTSYLPEEILWGYEFTPAISLSASGKYIADFSLFDQVVKVASPSGLRDSTVRYGDPEKLKLEESLREQAEKEGSALSVRISNV

Variants of: B1
Conditions: with inadl_mouse Patj

effect of a mutation on the interaction	Variant
disrupting interaction	MTSVAKVYYSQTTQTESRPLVAPGIRRRRVLTKDGRSNVRMEHIADKRFLYLKDLWTTFIDMQWRYKLLLFSATFAGTWFLFGVVWYLVAVAHGDLLELGPPANHTPCVVQVHTLTGAFLFSLESQTTIGYGFRYISEECPLAIVLLIAQLVLTTILEIFITGTFLAKIARPKKRAETIRFSQHAVVASHNGKPCLMIRVANMRKSLLIGCQVTGKLLQTHQTKEGENIRLNQVNVTFQVDTASDSPFLILPLTFYHVVDETSPLKDLPLRSGEGDFELVLILSGTVESTSATCQVRTSYLPEEILWGYEFTPAISLSASGKYIADFSLFDQVVKVASPSGLRDSTVRYGDPEKLKLEESLREQAEKEGSALSVRIGNV [S377G]
disrupting interaction	MTSVAKVYYSQTTQTESRPLVAPGIRRRRVLTKDGRSNVRMEHIADKRFLYLKDLWTTFIDMQWRYKLLLFSATFAGTWFLFGVVWYLVAVAHGDLLELGPPANHTPCVVQVHTLTGAFLFSLESQTTIGYGFRYISEECPLAIVLLIAQLVLTTILEIFITGTFLAKIARPKKRAETIRFSQHAVVASHNGKPCLMIRVANMRKSLLIGCQVTGKLLQTHQTKEGENIRLNQVNVTFQVDTASDSPFLILPLTFYHVVDETSPLKDLPLRSGEGDFELVLILSGTVESTSATCQVRTSYLPEEILWGYEFTPAISLSASGKYIADFSLFDQVVKVASPSGLRDSTVRYGDPEKLKLEESLREQAEKEGSALSVRISNA [V379A]
